Km data for 2 proteins are collected here from paper doi:10.1101/2023.11.26.568713v1.

Substrate in data set [1]: O=CC(=O)O
Put plainly: purified protein, by the assay type. As to conditions: pH 7.6; 30.0 °C.

Substrate in data set [2]: O=CC(=O)O
Kind of data set: purified protein, by the assay type. As to conditions: pH 7.6; 30.0 °C. This is another data set of the same source.

B1: BhcA (Paracoccus denitrificans PD1222) (protein)
chain: MTSQNPIFIPGPTNIPEEMRKAVDMPTIDHRSPVFGRMLHPALEGVKKVLKTTQAQVFLFPSTGTGGWETAITNTLSPGDKVLAARNGMFSHRWIDMCQRHGLDVTFVETPWGEGVPADRFEEILTADKGHEIRVVLATHNETATGVKSDIAAVRRALDAAKHPALLFVDGVSSIGSMDFRMDEWGVDIAVTGSQKGFMLPPGLAIVGFSPKAMEAVETARLPRTFFDIRDMATGYARNGYPYTPPVGLINGLNASCERILAEGLENVFARHHRIASGVRAAVDAWGLKLCAVRPELYSDSVSAIRVPEGFDANLIVSHALETYDMAFGTGLGQVAGKVFRIGHLGSLTDAMALSGIATAEMVMADLGLPIQLGSGVAAAQEHYRQTTAAAQKKAA
In general, Km refers to the concentration of substrate that gives half-maximal velocity. As for B1, the figures for the Km in data set [1] and in data set [2] were 140 ± 20 µM and 190 ± 20 µM, respectively.

B2: GGT1 (Arabidopsis thaliana) (protein)
chain: MALKALDYDTLNENVKKCQYAVRGELYLRASELQKEGKKIIFTNVGNPHALGQKPLTFPRQVVALCQAPFLLDDPNVGMLFPADAIARAKHYLSLTSGGLGAYSDSRGLPGVRKEVAEFIQRRDGYPSDPELIFLTDGASKGVMQILNCVIRGNGDGILVPVPQYPLYSATISLLGGTLVPYYLDESENWGLDVANLRQSVAQARSQGITVRAMVIINPGNPTGQCLSEANIREILKFCYNEKLVLLGDEVYQQNIYQDERPFISSKKVLMEMGSPFSKEVQLVSFHTVSKGYWGECGQRGGYFEMTNLPPRVVEEIYKVASIALSPNVSAQIFMGLMVNPPKPGDISYDQFARESKGILESLRRRARLMTDGFNSCKNVVCNFTEGAMYSFPQIRLPTGALQAAKQAGKVPDVFYCLKLLEATGISTVPGSGFGQKEGVFHLRTTILPAEDEMPEIMDSFKKFNDEFMTQYDNNFGYSKM
Turning to B2, the Michaelis constant (Km) in data set [1] was found to be 330 ± 30 µM.
